Sequences and labels used below:
B1: Tyrosine-protein phosphatase non-receptor type 22 (Homo sapiens), Q9Y2R2-1 (parent)
chain: MDQREILQKFLDEAQSKKITKEEFANEFLKLKRQSTKYKADKTYPTTVAEKPKNIKKNRYKDILPYDYSRVELSLITSDEDSSYINANFIKGVYGPKAYIATQGPLSTTLLDFWRMIWEYSVLIIVMACMEYEMGKKKCERYWAEPGEMQLEFGPFSVSCEAEKRKSDYIIRTLKVKFNSETRTIYQFHYKNWPDHDVPSSIDPILELIWDVRCYQEDDSVPICIHCSAGCGRTGVICAIDYTWMLLKDGIIPENFSVFSLIREMRTQRPSLVQTQEQYELVYNAVLELFKRQMDVIRDKHSGTESQAKHCIPEKNHTLQADSYSPNLPKSTTKAAKMMNQQRTKMEIKESSSFDFRTSEISAKEELVLHPAKSSTSFDFLELNYSFDKNADTTMKWQTKAFPIVGEPLQKHQSLDLGSLLFEGCSNSKPVNAAGRYFNSKVPITRTKSTPFELIQQRETKEVDSKENFSYLESQPHDSCFVEMQAQKVMHVSSAELNYSLPYDSKHQIRNASNVKHHDSSALGVYSYIPLVENPYFSSWPPSGTSSKMSLDLPEKQDGTVFPSSLLPTSSTSLFSYYNSHDSLSLNSPTNISSLLNQESAVLATAPRIDDEIPPPLPVRTPESFIVVEEAGEFSPNVPKSLSSAVKVKIGTSLEWGGTSEPKKFDDSVILRPSKSVKLRSPKSELHQDRSSPPPPLPERTLESFFLADEDCMQAQSIETYSTSYPDTMENSTSSKQTLKTPGKSFTRSKSLKILRNMKKSICNSCPPNKPAESVQSNNSSSFLNFGFANRFSKPKGPRNPPPTWNI
B2: Proline-serine-threonine phosphatase-interacting protein 1 (Homo sapiens), O43586 (parent)
chain: MMPQLQFKDAFWCRDFTAHTGYEVLLQRLLDGRKMCKDMEELLRQRAQAEERYGKELVQIARKAGGQTEINSLRASFDSLKQQMENVGSSHIQLALTLREELRSLEEFRERQKEQRKKYEAVMDRVQKSKLSLYKKAMESKKTYEQKCRDADDAEQAFERISANGHQKQVEKSQNKARQCKDSATEAERVYRQSIAQLEKVRAEWEQEHRTTCEAFQLQEFDRLTILRNALWVHSNQLSMQCVKDDELYEEVRLTLEGCSIDADIDSFIQAKSTGTEPPAPVPYQNYYDREVTPLTSSPGIQPSCGMIKRFSGLLHGSPKTTSLAASAASTETLTPTPERNEGVYTAIAVQEIQGNPASPAQEYRALYDYTAQNPDELDLSAGDILEVILEGEDGWWTVERNGQRGFVPGSYLEKL
partner: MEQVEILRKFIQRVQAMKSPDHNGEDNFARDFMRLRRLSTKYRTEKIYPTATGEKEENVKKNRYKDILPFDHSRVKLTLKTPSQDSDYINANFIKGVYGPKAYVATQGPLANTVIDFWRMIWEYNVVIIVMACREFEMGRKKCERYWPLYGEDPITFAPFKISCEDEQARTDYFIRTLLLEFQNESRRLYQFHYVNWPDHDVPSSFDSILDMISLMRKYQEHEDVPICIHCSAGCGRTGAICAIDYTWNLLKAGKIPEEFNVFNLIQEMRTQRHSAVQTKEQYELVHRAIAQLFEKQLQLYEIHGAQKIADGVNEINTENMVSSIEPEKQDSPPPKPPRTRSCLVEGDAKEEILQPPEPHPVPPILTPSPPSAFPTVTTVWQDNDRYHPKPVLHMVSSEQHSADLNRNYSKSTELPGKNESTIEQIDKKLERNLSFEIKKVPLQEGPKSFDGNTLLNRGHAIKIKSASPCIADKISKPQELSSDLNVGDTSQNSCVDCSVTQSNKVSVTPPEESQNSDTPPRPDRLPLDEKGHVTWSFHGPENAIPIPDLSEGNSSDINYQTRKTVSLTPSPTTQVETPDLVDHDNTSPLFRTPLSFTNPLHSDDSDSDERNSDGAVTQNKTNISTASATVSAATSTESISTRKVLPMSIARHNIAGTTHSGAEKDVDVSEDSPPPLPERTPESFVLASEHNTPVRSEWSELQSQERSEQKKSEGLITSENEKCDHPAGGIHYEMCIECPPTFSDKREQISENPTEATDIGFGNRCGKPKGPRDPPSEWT
B3: Proline-serine-threonine phosphatase-interacting protein 1 (Homo sapiens), O43586 (parent)
chain: B2 chain
partner: B1 chain
B4: Proline-serine-threonine phosphatase-interacting protein 1 (Homo sapiens), O43586 (parent)
chain: B2 chain
partner: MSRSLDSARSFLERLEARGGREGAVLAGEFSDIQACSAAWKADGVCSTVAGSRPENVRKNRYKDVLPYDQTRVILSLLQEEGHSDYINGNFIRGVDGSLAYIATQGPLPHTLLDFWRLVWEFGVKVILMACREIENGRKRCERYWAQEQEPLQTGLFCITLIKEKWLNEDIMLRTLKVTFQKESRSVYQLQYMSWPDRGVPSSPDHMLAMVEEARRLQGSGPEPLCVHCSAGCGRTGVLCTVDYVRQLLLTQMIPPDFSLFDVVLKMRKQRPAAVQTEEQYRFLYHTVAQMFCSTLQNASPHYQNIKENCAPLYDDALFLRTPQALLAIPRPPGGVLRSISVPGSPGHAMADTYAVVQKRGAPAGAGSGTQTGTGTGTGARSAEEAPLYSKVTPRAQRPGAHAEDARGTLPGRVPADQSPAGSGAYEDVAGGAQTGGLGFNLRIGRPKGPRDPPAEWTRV

Variants of B1 are the subject of the first experiment. To be noted: with ppip1_human PSTPIP1, O43586.
For the variant R799A, the “effect of a mutation on the interaction” value is recorded as “decreasing interaction strength”.

Turning to W805A, the “effect of a mutation on the interaction” value is on record as “decreasing interaction strength”.

The variants in a further experiment derive from B2. As to conditions: with ptn12_human PTPN12, Q05209.
For the variant G258A, the “effect of a mutation on the interaction” value was “with no effect”.

On to R228C, for which the “effect of a mutation on the interaction” value is given as “disrupting interaction strength”.

As for W232A, the “effect of a mutation on the interaction” value is “disrupting interaction strength”.

Regarding D266N, the “effect of a mutation on the interaction” value is reported as “with no effect”.

In the case of Q219H, the “effect of a mutation on the interaction” value is on record as “with no effect”.

In the case of E250Q, the “effect of a mutation on the interaction” value is on record as “decreasing interaction strength”.

Regarding E250K, the “effect of a mutation on the interaction” value is recorded as “disrupting interaction strength”.

E257G: the “effect of a mutation on the interaction” value was “with no effect”.

For E257K, the “effect of a mutation on the interaction” value is listed as “disrupting interaction strength”.

On to T274M, for which the “effect of a mutation on the interaction” value is recorded as “with no effect”.

Consider D246N, for which the “effect of a mutation on the interaction” value was “with no effect”.

For A230T, the “effect of a mutation on the interaction” value was “with no effect”.

The next experiment covers variants of B3. To be noted: with PTPN22, Q9Y2R2-1.
In the case of E250K, the “effect of a mutation on the interaction” value was “disrupting interaction strength”.

Regarding E250Q, the “effect of a mutation on the interaction” value is “decreasing interaction strength”.

As for D246N, the “effect of a mutation on the interaction” value was “decreasing interaction strength”.

As for Y345C, the “effect of a mutation on the interaction” value is recorded as “with no effect”.

For the variant R52Q, the “effect of a mutation on the interaction” value was “with no effect”.

On to D289H, for which the “effect of a mutation on the interaction” value is “with no effect”.

For G403E, the “effect of a mutation on the interaction” value is listed as “with no effect”.

On to G403R, for which the “effect of a mutation on the interaction” value is “with no effect”.

For the variant V344I, the “effect of a mutation on the interaction” value is “with no effect”.

Take D266N: the “effect of a mutation on the interaction” value is reported as “with no effect”.

For G258A, the “effect of a mutation on the interaction” value is “with no effect”.

For E257G, the “effect of a mutation on the interaction” value is “with no effect”.

For the variant E257K, the “effect of a mutation on the interaction” value was “decreasing interaction strength”.

With E277D, the “effect of a mutation on the interaction” value is “with no effect”.

Consider A230T, for which the “effect of a mutation on the interaction” value is listed as “with no effect”.

Turning to R228C, the “effect of a mutation on the interaction” value is reported as “disrupting interaction strength”.

On to W232A, for which the “effect of a mutation on the interaction” value was “disrupting interaction strength”.

As for R405C, the “effect of a mutation on the interaction” value was “with no effect”.

On to Q219H, for which the “effect of a mutation on the interaction” value is “with no effect”.

For the variant T274M, the “effect of a mutation on the interaction” value is listed as “with no effect”.

In the case of V122I, the “effect of a mutation on the interaction” value was “with no effect”.

For T68M, the “effect of a mutation on the interaction” value was “with no effect”.

For D384G, the “effect of a mutation on the interaction” value is “with no effect”.

The variants in a further experiment derive from B3. As to conditions: with PTPN22, Q9Y2R2-1. The source holds these as a separate data set.
Turning to E250K, the “effect of a mutation on the interaction” value is “decreasing interaction strength”.

In the case of E257G, the “effect of a mutation on the interaction” value is “decreasing interaction strength”.

As for R228C, the “effect of a mutation on the interaction” value was “decreasing interaction strength”.

The variants in the next experiment derive from B3. To be noted: with PTPN22, Q9Y2R2-1. This is another data set of the same source.
Turning to W232A, the “effect of a mutation on the interaction” value is given as “decreasing interaction strength”.

The next experiment covers variants of B4. To be noted: with ptn18_human PTPN18, Q99952.
T274M: the “effect of a mutation on the interaction” value is given as “with no effect”.

For R228C, the “effect of a mutation on the interaction” value is recorded as “disrupting interaction strength”.

Consider D266N, for which the “effect of a mutation on the interaction” value was “with no effect”.

Consider A230T, for which the “effect of a mutation on the interaction” value is recorded as “with no effect”.

In the case of E257K, the “effect of a mutation on the interaction” value is on record as “disrupting interaction strength”.

With E257G, the “effect of a mutation on the interaction” value is “with no effect”.

For the variant D246N, the “effect of a mutation on the interaction” value is “decreasing interaction strength”.

Take E250K: the “effect of a mutation on the interaction” value is reported as “disrupting interaction strength”.

In the case of E250Q, the “effect of a mutation on the interaction” value is on record as “decreasing interaction strength”.

W232A: the “effect of a mutation on the interaction” value is “disrupting interaction strength”.

In the case of G258A, the “effect of a mutation on the interaction” value is recorded as “with no effect”.

In the case of Q219H, the “effect of a mutation on the interaction” value is listed as “with no effect”.

Values taken from IntAct's records for PubMed 35152348.
